Measured values: publication PMC8509827

Molecular target: ArsR6 (Flag-tagged, in the complemented strain C[change]) (Brucella suis S2)
Test: cross-linking

ArsR6 (Flag-tagged, in the complemented strain C[change]) (natural protein)
stoichiometry N: 2
